In publication PMC4229625:

Molecular target: GST-Ana2 phosphorylated by active Plk4 (MBP-Plk4) (Drosophila) (UniProt Q9XZ31)
Assay: pull-down; recombinant GST-Ana2 (or its fragments or mutants) on beads, incubated with active MBP-Plk4 or inactive MBP-Plk4^KD, then with ^35S-Met-labeled proteins made by in vitro transcription and translation; SDS-PAGE and autoradiography

Chain of UniProt Q9XZ31 (Q9XZ31 entry or part of it): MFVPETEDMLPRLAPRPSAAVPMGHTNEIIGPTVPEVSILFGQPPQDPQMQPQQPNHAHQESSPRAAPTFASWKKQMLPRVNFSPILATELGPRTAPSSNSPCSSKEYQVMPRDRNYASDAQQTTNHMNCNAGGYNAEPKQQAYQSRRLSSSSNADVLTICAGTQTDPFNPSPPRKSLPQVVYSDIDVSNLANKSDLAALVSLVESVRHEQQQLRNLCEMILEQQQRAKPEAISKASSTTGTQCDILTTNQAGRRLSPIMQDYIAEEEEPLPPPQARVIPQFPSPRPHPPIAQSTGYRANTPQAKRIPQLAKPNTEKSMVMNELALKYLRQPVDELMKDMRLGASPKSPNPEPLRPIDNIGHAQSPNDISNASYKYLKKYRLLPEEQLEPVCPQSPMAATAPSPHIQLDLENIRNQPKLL

fold increase of binding against Ana2 treated with inactive Plk4: 3.5 fold
Substance: ^35S-Met-labeled Bld10 (natural protein)
